From the supplement of paper PMC5998384 come the findings set out here.

Series [1] relates to HeLa Kyoto. Nature of the series: solubility in G1/S (NP-40 vs SDS abundance) (log2 ratio); higher = more soluble. The settings on record: cell cycle stage: G1/S.
Series [2] deals with HeLa Kyoto. Kind of series: melting temperature (median over replicates), in situ; higher = more thermally stable.
Series [3] deals with HeLa Kyoto. Nature of the series: solubility change mitosis vs G1/S (difference of NP-40 vs SDS log2 ratios) (log2 ratio difference); higher = more soluble in mitosis.
Series [4] has as its system HeLa Kyoto. Kind of series: thermal stability score vs G1/S (z-score of summed log2 fold changes over temperatures); higher = more thermally stable than in G1/S.
Setting [5] is: cell cycle stage: early G1 (4.5 h after nocodazole release).
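Wherever melting temperature (median over replicates), in situ is given: HeLa Kyoto cells synchronized by double thymidine or nocodazole block, proteins quantified by TMT10plex mass spectrometry, three independent biological replicates.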
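Wherever solubility change mitosis vs G1/S (difference of NP-40 vs SDS log2 ratios) is given: synchronized HeLa Kyoto cells (double thymidine block for G1/S, nocodazole release for mitosis), protein amounts in NP-40 versus SDS lysates quantified by mass spectrometry, three biological replicates.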
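Wherever solubility in G1/S (NP-40 vs SDS abundance) is given: HeLa Kyoto cells arrested at G1/S by double thymidine block, proteins quantified by TMT10plex mass spectrometry in mild NP-40 versus SDS extracts, three biological replicates.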
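Wherever thermal stability score vs G1/S (z-score of summed log2 fold changes over temperatures) is given: synchronized HeLa Kyoto cells, proteins quantified by TMT10plex mass spectrometry, three biological replicates, mitosis taken 0.5 h after nocodazole release, G1/S directly after double thymidine block.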

“MAAEVYFGDLELFEPFDHPEESIPKPVHTRFKDDDGDEEDENGVGDAELRERLRQCEETIEQLRAENQELKRKLNILTRPSGILVNDTKLDGPILQILFMNNAISKQYHQEIEEFVSNLVKRFEEQQKNDVEKTSFNLLPQPSSIVLEEDHKVEESCAIKNNKEAFSVVGSVLYFTNFCLDKLGQPLLNENPQLSEGWEIPKYHQVFSHIVSLEGQEIQVKAKRPKPHCFNCGSEEHQMKDCPMPRNAARISEKRKEYMDACGEANNQNFQQRYHAEEVEERFGRFKPGVISEELQDALGVTDKSLPPFIYRMRQLGYPPGWLKEAELENSGLALYDGKDGTDGETEVGEIQQNKSVTYDLSKLVNYPGFNISTPRGIPDEWRIFGSIPMQACQQKDVFANYLTSNFQAPGVKSGNKRSSSHSSPGSPKKQKNESNSAGSPADMELDSDMEVPHGSQSSESFQFQPPLPPDTPPLPRGTPPPVFTPPLPKGTPPLTPSDSPQTRTASGAVDEDALTLEELEEQQRRIWAALEQAESVNSDSDVPVDTPLTGNSVASSPCPNELDLPVPEGKTSEKQTLDEPEVPEIFTKKSEAGHASSPDSEVTSLCQKEKAELAPVNTEGALLDNGSVVPNCDISNGGSQKLFPADTSPSTATKIHSPIPDMSKFATGITPFEFENMAESTGMYLRIRSLLKNSPRNQQKNKKASE [ZCCHC8]”: in series [1], the “solubility in G1/S (log2)” value is 0.0806. Moreover, the melting temperature was found to be 51 °C in series [2] (cell cycle stage: G1/S) and 52.4 °C in series [2] (cell cycle stage: mitosis). The “solubility change mitosis (log2)” value in series [3] is -0.117. Moreover, the thermal stability score in series [4] (setting [5]) was 0.273; in series [4] (cell cycle stage: mitosis), 0.547.
In the case of “MAAFAVEPQGPALGSEPMMLGSPTSPKPGVNAQFLPGFLMGDLPAPVTPQPRSISGPSVGVMEMRSPLLAGGSPPQPVVPAHKDKSGAPPVRSIYDDISSPGLGSTPLTSRRQPNISVMQSPLVGVTSTPGTGQSMFSPASIGQPRKTTLSPAQLDPFYTQGDSLTSEDHLDDSWVTVFGFPQASASYILLQFAQYGNILKHVMSNTGNWMHIRYQSKLQARKALSKDGRIFGESIMIGVKPCIDKSVMESSDRCALSSPSLAFTPPIKTLGTPTQPGSTPRISTMRPLATAYKASTSDYQVISDRQTPKKDESLVSKAMEYMFGW [NUP35]”, in series [1], the “solubility in G1/S (log2)” value was found to be 0.209. In addition, the melting temperature in series [2] (cell cycle stage: G1/S) is 52.3 °C; in series [2] (cell cycle stage: mitosis), 52 °C. Moreover, the “solubility change mitosis (log2)” value in series [3] is -0.0493. Moreover, the results for the thermal stability score in series [4] (setting [5]) and in series [4] (cell cycle stage: mitosis) were -2.22 and -0.679, respectively.
In the case of “MAAFLKMSVSVNFFRPFTRFLVPFTLHRKRNNLTILQRYMSSKIPAVTYPKNESTPPSEELELDKWKTTMKSSVQEECVSTISSSKDEDPLAATREFIEMWRLLGREVPEHITEEELKTLMECVSNTAKKKYLKYLYTKEKVKKARQIKKEMKAAAREEAKNIKLLETTEEDKQKNFLFLRLWDRNMDIAMGWKGAQAMQFGQPLVFDMAYENYMKRKELQNTVSQLLESEGWNRRNVDPFHIYFCNLKIDGALHRELVKRYQEKWDKLLLTSTEKSHVDLFPKDSIIYLTADSPNVMTTFRHDKVYVIGSFVDKSMQPGTSLAKAKRLNLATECLPLDKYLQWEIGNKNLTLDQMIRILLCLKNNGNWQEALQFVPKRKHTGFLEISQHSQEFINRLKKAKT [TRMT10C]”, in series [1], the “solubility in G1/S (log2)” value is -0.0196. Besides, the melting temperature in series [2] (cell cycle stage: G1/S) came out at 51.3 °C; in series [2] (cell cycle stage: mitosis), 51.9 °C. Besides, in series [3], the “solubility change mitosis (log2)” value was -0.114. The thermal stability score is 0.276 in series [4] (setting [5]) and 0.67 in series [4] (cell cycle stage: mitosis).
On to “MAAGAGTAGPASGPGVVRDPAASQPRKRPGREGGEGARRSDTMAGGGGSSDGSGRAAGRRASRSSGRARRGRHEPGLGGPAERGAGEARLEEAVNRWVLKFYFHEALRAFRGSRYGDFRQIRDIMQALLVRPLGKEHTVSRLLRVMQCLSRIEEGENLDCSFDMEAELTPLESAINVLEMIKTEFTLTEAVVESSRKLVKEAAVIICIKNKEFEKASKILKKHMSKDPTTQKLRNDLLNIIREKNLAHPVIQNFSYETFQQKMLRFLESHLDDAEPYLLTMAKKALKSESAASSTGKEDKQPAPGPVEKPPREPARQLRNPPTTIGMMTLKAAFKTLSGAQDSEAAFAKLDQKDLVLPTQALPASPALKNKRPRKDENESSAPADGEGGSELQPKNKRMTISRLVLEEDSQSTEPSAGLNSSQEAASAPPSKPTVLNQPLPGEKNPKVPKGKWNSSNGVEEKETWVEEDELFQVQAAPDEDSTTNITKKQKWTVEESEWVKAGVQKYGEGNWAAISKNYPFVNRTAVMIKDRWRTMKRLGMN [TERF2]”, for which the “solubility in G1/S (log2)” value in series [1] came to 0.0628. For the same sequence, the figures for the melting temperature in series [2] (cell cycle stage: G1/S) and in series [2] (cell cycle stage: mitosis) were 48.9 °C and 50.3 °C, respectively. Moreover, the “solubility change mitosis (log2)” value in series [3] is 0.0937. In addition, the values for the thermal stability score in series [4] (setting [5]) and in series [4] (cell cycle stage: mitosis) were 1.08 and 1.27, respectively.
Regarding “MAAGGSTQQRRREMAAASAAAISGAGRCRLSKIGATRRPPPARVRVAVRLRPFVDGTAGASDPPCVRGMDSCSLEIANWRNHQETLKYQFDAFYGERSTQQDIYAGSVQPILRHLLEGQNASVLAYGPTGAGKTHTMLGSPEQPGVIPRALMDLLQLTREEGAEGRPWALSVTMSYLEIYQEKVLDLLDPASGDLVIREDCRGNILIPGLSQKPISSFADFERHFLPASRNRTVGATRLNQRSSRSHAVLLVKVDQRERLAPFRQREGKLYLIDLAGSEDNRRTGNKGLRLKESGAINTSLFVLGKVVDALNQGLPRVPYRDSKLTRLLQDSLGGSAHSILIANIAPERRFYLDTVSALNFAARSKEVINRPFTNESLQPHALGPVKLSQKELLGPPEAKRARGPEEEEIGSPEPMAAPASASQKLSPLQKLSSMDPAMLERLLSLDRLLASQGSQGAPLLSTPKRERMVLMKTVEEKDLEIERLKTKQKELEAKMLAQKAEEKENHCPTMLRPLSHRTVTGAKPLKKAVVMPLQLIQEQAASPNAEIHILKNKGRKRKLESLDALEPEEKAEDCWELQISPELLAHGRQKILDLLNEGSARDLRSLQRIGPKKAQLIVGWRELHGPFSQVEDLERVEGITGKQMESFLKANILGLAAGQRCGAS [KIF22]”, the “solubility in G1/S (log2)” value in series [1] was -0.459. For the same sequence, the melting temperature in series [2] (cell cycle stage: G1/S) came to 50 °C; in series [2] (cell cycle stage: mitosis), 48.2 °C. Besides, the “solubility change mitosis (log2)” value in series [3] is 0.342. Besides, the values for the thermal stability score in series [4] (setting [5]) and in series [4] (cell cycle stage: mitosis) were 1.72 and 2.31, respectively.
Take “MAAGKSGGSAGEITFLEALARSESKRDGGFKNNWSFDHEEESEGDTDKDGTNLLSVDEDEDSETSKGKKLNRRSEIVANSSGEFILKTYVRRNKSESFKTLKGNPIGLNMLSNNKKLSENTQNTSLCSGTVVHGRRFHHAHAQIPVVKTAAQSSLDRKERKEYPPHVQKVEINPVRLSRLQGVERIMKKTEESESQVEPEIKRKVQQKRHCSTYQPTPPLSPASKKCLTHLEDLQRNCRQAITLNESTGPLLRTSIHQNSGGQKSQNTGLTTKKFYGNNVEKVPIDIIVNCDDSKHTYLQTNGKVILPGAKIPKITNLKERKTSLSDLNDPIILSSDDDDDNDRTNRRESISPQPADSACSSPAPSTGKVEAALNENTCRAERELRSIPEDSELNTVTLPRKARMKDQFGNSIINTPLKRRKVFSQEPPDALALSCQSSFDSVILNCRSIRVGTLFRLLIEPVIFCLDFIKIQLDEPDHDPVEIILNTSDLTKCEWCNVRKLPVVFLQAIPAVYQKLSIQLQMNKEDKVWNDCKGVNKLTNLEEQYIILIFQNGLDPPANMVFESIINEIGIKNNISNFFAKIPFEEANGRLVACTRTYEESIKGSCGQKENKIKTVSFESKIQLRSKQEFQFFDEEEETGENHTIFIGPVEKLIVYPPPPAKGGISVTNEDLHCLNEGEFLNDVIIDFYLKYLVLEKLKKEDADRIHIFSSFFYKRLNQRERRNHETTNLSIQQKRHGRVKTWTRHVDIFEKDFIFVPLNEAAHWFLAVVCFPGLEKPKYEPNPHYHENAVIQKCSTVEDSCISSSASEMESCSQNSSAKPVIKKMLNKKHCIAVIDSNPGQEESDPRYKRNICSVKYSVKKINHTASENEEFNKGESTSQKVADRTKSENGLQNESLSSTHHTDGLSKIRLNYSDESPEAGKMLEDELVDFSEDQDNQDDSSDDGFLADDNCSSEIGQWHLKPTICKQPCILLMDSLRGPSRSNVVKILREYLEVEWEVKKGSKRSFSKDVMKGSNPKVPQQNNFSDCGVYVLQYVESFFENPILSFELPMNLANWFPPPRMRTKREEIRNIILKLQEDQSKEKRKHKDTYSTEAPLGEGTEQYVNSISD [SENP6]”: the “solubility in G1/S (log2)” value in series [1] is -0.261. Moreover, the melting temperature in series [2] (cell cycle stage: G1/S) came to 51.8 °C; in series [2] (cell cycle stage: mitosis), 52.5 °C. The “solubility change mitosis (log2)” value in series [3] turned out to be 0.144. Besides, the thermal stability score in series [4] (setting [5]) was -0.65; in series [4] (cell cycle stage: mitosis), 0.269.
